Results on three substances are retold here after US20220135655A1.

Holding throughout (test): SPR
Conditions in all cases: scFv

Assay [1] addresses H5VN04 (influenza A virus H5VN04 (H5N1)).
Assay [2] addresses H5 (influenza A virus H5VN04 (H5N1)).
Assay [3] shares this target. The source holds these as a separate data set.
The target is the same in assay [4]. The source holds these as a separate data set.

The term Kd denotes the equilibrium constant for the complex coming apart. High values mean weaker binding, low ones tighter binding. In turn, CR6261 wt had a Kd in assay [1] of 0.34 nM.

In assay [1], F10 wt registered a Kd of 0.1 nM.

For F10, the Kd in assay [2] was found to be 0.1 nM; in assay [3], 270 nM; in assay [4], 1.2 nM.
